According to PMC7900238, “A meet-up of two second messengers: the c-di-AMP receptor DarB controls (p)ppGpp synthesis in Bacillus subtilis” (Nature Communications, 2021):

How the values were obtained:
DarB = DarB (Bacillus subtilis, UniProt O31698); assay: biochemical
Rel = target: T1, Rel (Bacillus subtilis, UniProt O54408); assay: hydrolase assay, GTP formation by LC-MS/MS; format: biochemical; conditions: 1 mM pppGpp, 1 mM MnCl2, 5 mM Mg(OAc)2, HEPES:Polymix pH 7.5, 37 °C; without DarB
T1 construct: gene relA; full-length (734 residues), 10xHis-SUMO fusion from plasmid pVHP186 in E. coli Rosetta(DE3), SUMO tag cleaved, RNA-free
T1 sequence (O54408 whole entry, the tested form may be a part): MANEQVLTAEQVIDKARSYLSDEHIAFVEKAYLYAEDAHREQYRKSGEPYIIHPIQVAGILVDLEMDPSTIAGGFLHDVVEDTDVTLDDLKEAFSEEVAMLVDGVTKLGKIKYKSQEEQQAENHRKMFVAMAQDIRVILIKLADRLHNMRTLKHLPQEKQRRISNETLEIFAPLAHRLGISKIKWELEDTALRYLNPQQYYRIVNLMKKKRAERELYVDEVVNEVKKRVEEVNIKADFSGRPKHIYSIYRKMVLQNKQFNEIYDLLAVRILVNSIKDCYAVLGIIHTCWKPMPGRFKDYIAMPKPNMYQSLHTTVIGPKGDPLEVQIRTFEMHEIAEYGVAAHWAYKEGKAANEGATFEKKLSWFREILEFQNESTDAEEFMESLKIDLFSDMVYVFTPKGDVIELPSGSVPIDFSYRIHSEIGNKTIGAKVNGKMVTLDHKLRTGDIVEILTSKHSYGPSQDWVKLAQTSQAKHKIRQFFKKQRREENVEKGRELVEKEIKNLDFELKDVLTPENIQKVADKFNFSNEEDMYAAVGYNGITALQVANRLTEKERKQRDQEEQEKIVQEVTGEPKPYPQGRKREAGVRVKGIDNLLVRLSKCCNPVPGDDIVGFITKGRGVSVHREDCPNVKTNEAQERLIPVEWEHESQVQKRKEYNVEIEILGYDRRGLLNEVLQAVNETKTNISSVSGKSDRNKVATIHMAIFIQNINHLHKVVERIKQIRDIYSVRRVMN

[1] = target: Rel, full length, purified, SUMO tag removed (B. subtilis, UniProt O54408 1-734); assay: cell-based or functional assay
Sequence of Rel, full length, purified, SUMO tag removed (O54408 whole entry): as the sequence (O54408 whole entry, the tested form may be a part) above

[2] = target: T2, Rel^NTD, purified, as used in SEC-MALS and ITC (B. subtilis 168, UniProt O54408 1-391); assay: ITC; 10 µM Rel^NTD in the cell, 100 µM DarB in the syringe, 50 mM Tris-HCl pH 8.3, 200 mM NaCl, 20 °C; conditions: both partners purified
T2 construct: Rel, Bacillus subtilis 168, aa 1-391 (HYD and SYN domains); the only expression plasmid named is pGP3350 (Strep-tagged); The SEC-MALS methods speak of 'purified tag-free proteins', but no removal of the Strep tag from Rel^NTD is described; Monomer by SEC-MALS; source: E. coli Rosetta(DE3), purified (StrepTactin)
T2 sequence (O54408 1-391): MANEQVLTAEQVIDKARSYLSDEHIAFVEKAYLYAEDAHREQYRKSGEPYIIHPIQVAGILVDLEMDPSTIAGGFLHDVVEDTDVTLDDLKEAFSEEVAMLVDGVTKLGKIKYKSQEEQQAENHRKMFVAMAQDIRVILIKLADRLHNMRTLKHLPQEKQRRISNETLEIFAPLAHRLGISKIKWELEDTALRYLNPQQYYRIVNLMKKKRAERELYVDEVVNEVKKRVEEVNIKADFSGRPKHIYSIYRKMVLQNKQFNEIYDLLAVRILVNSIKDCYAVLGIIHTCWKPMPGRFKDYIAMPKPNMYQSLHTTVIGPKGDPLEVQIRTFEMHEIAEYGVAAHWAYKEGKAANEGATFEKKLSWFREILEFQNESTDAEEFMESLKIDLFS

[3] = target: the molecule itself; assay: SEC-MALS; Rel^NTD and DarB alone or pre-mixed 1:1 (~1 mg/ml each) in 1× ZAP buffer (50 mM Tris-HCl, 200 mM NaCl, pH 7.5), Superdex 200 10/300GL; fractions on SDS-PAGE

Sequence of DarB (O31698 whole entry): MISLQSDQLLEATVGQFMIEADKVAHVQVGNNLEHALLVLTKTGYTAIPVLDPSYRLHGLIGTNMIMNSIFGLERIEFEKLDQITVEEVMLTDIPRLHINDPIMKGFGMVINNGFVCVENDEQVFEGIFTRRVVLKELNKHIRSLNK

For Nc1ncnc2c1ncn2[C@@H]1O[C@@H]2COP(=O)(O)O[C@H]3[C@@H](O)[C@H](n4cnc5c(N)ncnc54)O[C@@H]3COP(=O)(O)O[C@H]2[C@H]1O [c-di-AMP], which Kd (DarB) is on record?
Its Kd is ~45 nM.

Nc1nc2c(ncn2[C@@H]2O[C@H](COP(=O)(O)OP(=O)(O)OP(=O)(O)O)[C@@H](OP(=O)(O)OP(=O)(O)O)[C@H]2O)c(=O)[nH]1 [pppGpp] was tested. Which “hydrolase assay, GTP formation by LC-MS/MS” value (Rel) did it give?
Its value is “we determined the formation of GTP resulting from the hydrolysis of pppGpp”.

B1: DarB, purified, SUMO tag removed (natural protein, B. subtilis 168)
chain: ISLQSDQLLEATVGQFMIEADKVAHVQVGNNLEHALLVLTKTGYTAIPVLDPSYRLHGLIGTNMIMNSIFGLERIEFEKLDQITVEEVMLTDIPRLHINDPIMKGFGMVINNGFVCVENDEQVFEGIFTRRVVLKELNKHIRSLNK
notes: darB amplified from chromosomal DNA and cloned into pET-SUMO (pGP2972); Dimer by SEC-MALS; Apo form as made in E. coli; in some experiments preincubated or saturated with c-di-AMP (written as a condition of the assay); also called apo-DarB; c-di-AMP receptor DarB; source: E. coli Rosetta(DE3), purified (Ni-NTA; SUMO tag removed with SUMO protease)
B1 was tested. Which “pppGpp hydrolase activity of purified Rel (0.5 µM) with DarB (5 µM), against Rel alone (8.7 pmol of GTP per pmol of Rel per minute)” value [1] did it give?
The value was 6 fold.

What about the “pppGpp synthetase activity of purified Rel (0.5 µM) with DarB (5 µM), against Rel alone (1.1 pmol pppGpp per pmol of Rel per minute)” value [1] of the same molecule?
The value was 3 fold.

What about the Kd [2] of the same molecule?
Its Kd is 650 nM.

What about the “stoichiometry N” value [2] of the same molecule?
The value was 1.

And the “stoichiometry N” value [3]?
Its value is 2.
